Data reported in article PMC12609799, “Novel Dual-Coenzyme Specificity and Thermostability of Malate Dehydrogenase Identified in the Cyanobacterium Microcystis aeruginosa PCC7806” (International Journal of Molecular Sciences, 2025).

Key:
[1] = substrate: NC(=O)C1=CN([C@@H]2O[C@H](COP(=O)(O)OP(=O)(O)OC[C@H]3O[C@@H](n4cnc5c(N)ncnc54)[C@H](O)[C@@H]3O)[C@@H](O)[C@H]2O)C=CC1; experiment: purified protein; assay type: biochemical, Microcystis aeruginosa; conditions: oxaloacetate reduction, 100 mM Tris-HCl pH 8.0, 25 °C, apparent, varied: cofactor
[2] = substrate: NC(=O)C1=CN([C@@H]2O[C@H](COP(=O)(O)OP(=O)(O)OC[C@H]3O[C@@H](n4cnc5c(N)ncnc54)[C@H](OP(=O)(O)O)[C@@H]3O)[C@@H](O)[C@H]2O)C=CC1; experiment: purified protein; assay type: biochemical, Microcystis aeruginosa; conditions: oxaloacetate reduction, 100 mM Tris-HCl pH 8.0, 25 °C, apparent, varied: cofactor

B1: MaMDH (Ma7806MDH) (Microcystis aeruginosa PCC 7806SL) (protein)
chain: MVDFYDTLIPCQSPRVSVIGAGNVGRTLAQRIAEKNLADVVLLDIVHGLPQGIALDLMEAQGIELHDSEIIGTNNYEDTAGSDIVVITAGLARKPGMSRDDLMNVNAKIVVEAATKCLKYSPEAIFIVITNPLDVMTYLVWQATGLPPQRVMGMAGVLDSSRLQTFIAMELGVSTADVHAMVLGGHGDLMLPLPRYCTVSGVPITELMDEITINRLVERTRNGGAEIVKLLQTGGAYYAPASSACTMVETILRNQSRLLPAAAYLKGEYGLQDVYLGVPCRLGCRGVESILEVRLTDAERLDLHTSAASVRQNVHLALDSLKVLM
**Q.** With B1 as the protein, how does the Km [1] read?
**A.** 33.140 ± 0.95 µM

**Q.** What about the kcat [1] of the same protein?
**A.** 31.7 ± 1.43 s⁻¹

**Q.** What about the kcat/Km [1] of the same protein?
**A.** 956000 M⁻¹ s⁻¹

**Q.** What about the Km [2] of the same protein?
**A.** 113.200 ± 3.46 µM

**Q.** What about the kcat [2] of the same protein?
**A.** 8.71 ± 1.45 s⁻¹

**Q.** What about the kcat/Km [2] of the same protein?
**A.** 77000 M⁻¹ s⁻¹
